Test results taken from publication PMC10663505 (Nature Communications, 2023).

Biological target: the molecule itself
Assay: native gel or EMSA

B1: phosphorylated TBK1 (Native-PAGE of Supplementary Fig. S8a) (enzyme, UniProt Q9WUN2 1-729, looked up)
chain: MQSTSNHLWLLSDILGQGATANVFRGRHKKTGDLYAVKVFNNISFLRPVDVQMREFEVLKKLNHKNIVKLFAIEEETTTRHKVLIMEFCPCGSLYTVLEEPSNAYGLPESEFLIVLRDVVGGMNHLRENGIVHRDIKPGNIMRVIGEDGQSVYKLTDFGAARELEDDEQFVSLYGTEEYLHPDMYERAVLRKDHQKKYGATVDLWSVGVTFYHAATGSLPFRPFEGPRRNKEVMYKIITGKPSGAISGVQKAENGPIDWSGDMPLSCSLSQGLQALLTPVLANILEADQEKCWGFDQFFAETSDVLHRMVIHVFSLQHMTAHKIYIHSYNTAAVFHELVYKQTKIVSSNQELIYEGRRLVLELGRLAQHFPKTTEENPIFVTSREQLNTVGLRYEKISLPKIHPRYDLDGDASMAKAVTGVVCYACRTASTLLLYQELMRKGVRWLVELVKDDYNETVHKKTEVVITLDFCIRNIEKTVKVYEKLMKVNLEAAELGEISDIHTKLLRLSSSQGTIESSLQDISSRLSPGGLLADTWAHQEGTHPRDRNVEKLQVLLNCITEIYYQFKKDKAERRLAYNEEQIHKFDKQKLYYHATKAMSHFSEECVRKYEAFKDKSEEWMRKMLHLRKQLLSLTNQCFDIEEEVSKYQDYTNELQETLPQKMLAASGGVKHAMAPIYPSSNTLVEMTLGMKKLKEEMEGVVKELAENNHILERFGSLTMDGGLRNVDCL
modifications: phosphorylated (detected with the anti-phosphorylated TBK1 antibody)
notes: probably endogenous mouse TBK1
  stoichiometry N: 2
